Measured values as given in publication PMC9939296 (Acta Pharmaceutica Sinica. B, 2022).

Assays:
DgpA/B/C = target: T1, DgpA/B/C (human intestinal bacterium PUE, UniProt A0A3Q9WUX0+A0A3Q9WWX8+A0A3Q9WXL1); test: inhibition of puerarin cleavage, HPLC; assay type: biochemical; conditions: proposed competitive with puerarin at DgpA pocket; substrate puerarin
T1 sequence (A0A3Q9WWX8 1-367): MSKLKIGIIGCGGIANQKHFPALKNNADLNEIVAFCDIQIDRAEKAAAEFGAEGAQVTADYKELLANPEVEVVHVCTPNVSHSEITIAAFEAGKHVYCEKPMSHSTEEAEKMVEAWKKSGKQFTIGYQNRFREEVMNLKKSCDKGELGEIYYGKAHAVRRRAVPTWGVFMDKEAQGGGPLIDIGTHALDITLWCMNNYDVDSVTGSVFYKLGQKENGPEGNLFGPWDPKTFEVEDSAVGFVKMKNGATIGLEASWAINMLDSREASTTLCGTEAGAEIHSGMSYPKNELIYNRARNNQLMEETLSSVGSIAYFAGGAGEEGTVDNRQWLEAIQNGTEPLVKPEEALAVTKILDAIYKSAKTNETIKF
T1 sequence (A0A3Q9WXL1 1-324): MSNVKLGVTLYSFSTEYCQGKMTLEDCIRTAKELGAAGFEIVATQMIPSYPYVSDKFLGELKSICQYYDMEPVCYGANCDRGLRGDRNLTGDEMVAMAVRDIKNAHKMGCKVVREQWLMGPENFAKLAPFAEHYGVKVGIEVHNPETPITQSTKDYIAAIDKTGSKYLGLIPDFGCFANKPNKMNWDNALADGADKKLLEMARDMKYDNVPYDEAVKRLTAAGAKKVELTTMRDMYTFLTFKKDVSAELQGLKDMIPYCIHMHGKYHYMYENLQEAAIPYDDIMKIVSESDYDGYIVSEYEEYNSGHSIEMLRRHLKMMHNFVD
T1 sequence (A0A3Q9WUX0 1-142): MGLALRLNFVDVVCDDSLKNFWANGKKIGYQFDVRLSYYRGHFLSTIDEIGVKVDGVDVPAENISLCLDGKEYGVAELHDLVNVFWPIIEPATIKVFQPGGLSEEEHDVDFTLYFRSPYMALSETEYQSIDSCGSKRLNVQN

[1] = target: DgpA (human intestinal bacterium PUE); test: SEC
[2] = target: DgpA (human intestinal bacterium PUE); test: native gel or EMSA

| stoichiometry N [1] | stoichiometry N [2] | Compound | inhibition ratio (DgpA/B/C) |
| --- | --- | --- | --- |
|  |  | OC[C@H]1OC(O)[C@H](O)[C@@H](O)[C@@H]1O (stereo partly drawn) [glucose] | cleaving activity of DgpA/B/C was significantly attenuated proportional to glucose concentration |
| 6 | 6 | DgpA (enzyme) |  |
